Results as given in publication PMC9687920, “Effects of Boric Acid and Storage Temperature on the Analysis of Microalbumin Using Aptasensor-Based Fluorescent Detection”.

Target: human serum albumin (HSA) (Homo sapiens, UniProt P02768 25-609)
Test: graphene oxide fluorescence recovery (competition with GO quencher); PBS; PBS or PBS with 2% (w/v) boric acid, ambient temperature, 5 mg/L GO stock, 30 min with HSA in the dark; pH not given
Conditions: protein: commercial; label: 5'-Cy5

Sequence of human serum albumin (HSA) (P02768 25-609): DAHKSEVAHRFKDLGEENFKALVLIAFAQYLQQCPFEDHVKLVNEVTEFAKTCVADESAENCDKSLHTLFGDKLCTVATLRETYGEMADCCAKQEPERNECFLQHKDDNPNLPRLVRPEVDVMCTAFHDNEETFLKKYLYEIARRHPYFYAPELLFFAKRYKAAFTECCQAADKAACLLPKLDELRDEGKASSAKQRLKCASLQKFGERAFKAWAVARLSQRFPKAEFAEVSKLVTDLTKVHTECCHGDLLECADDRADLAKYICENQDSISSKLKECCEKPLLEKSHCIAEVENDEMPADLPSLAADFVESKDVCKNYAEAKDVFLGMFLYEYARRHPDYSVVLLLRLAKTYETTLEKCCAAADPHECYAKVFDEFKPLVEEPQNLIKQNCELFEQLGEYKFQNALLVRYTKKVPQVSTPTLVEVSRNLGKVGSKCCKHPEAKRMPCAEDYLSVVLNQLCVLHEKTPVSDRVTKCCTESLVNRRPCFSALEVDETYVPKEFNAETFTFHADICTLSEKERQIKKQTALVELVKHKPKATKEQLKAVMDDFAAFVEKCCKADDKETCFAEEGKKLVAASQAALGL

B1: H8 aptamer (ssDNA)
DNA: ATACCAGCTTATTCAATTCCCCCGGCTTTGGTTTAGAGGTAGTTGCTCATTACTTGTACGCTCCGGATGAGATAGTAAGTGCAATCT
  binding result: binds
